Source: paper PMC7966918

Target: SARS-CoV-2 RBD (residues Arg319–Phe541) (SARS-CoV-2) (UniProt P0DTC2)

B1: P5A-2G7 (Fab) (Fab, V domains shown)
VH: QVQLQESGPGLVKPSETLSLTCTVSGDSVSSGSYYWSWIRQPPGKGLEWIGYIYYSGSTNYNPSLKSRVTISVDTSKNQFSLKLSSVTAADTAVYYCARERCYYGSGRAPRCVWFDPWGQGTLVTVSS
VL: QSALTQPASVSGSPGQSITISCTGTSSDVGGYNYVSWYQQHPGKAPKLMIYDVSNRPSGVSNRFSGSKSGNTASLTISGLQAEDEADYYCSSYTSSSTLVVFGGGTKLTVL
For B1, the SARS-CoV-2 pseudovirus neutralisation (luciferase, Huh7), IC50, Fab was 195 nM, the SARS-CoV-2 pseudovirus neutralisation (luciferase, Huh7), IC80, Fab was 1020 nM and the other was 15.5%.

B2: P5A-1B8 (Fab) (Fab, V domains shown)
VH: EVQLVESGGGLIQPGGSLRLSCAASGFTVSSNYMSWVRQAPGKGLEWVSVIYPGGSTFYADSVKGRFTISRDNSKNTLYLQMNSLRAEDTAVYYCARETLAFDYWGQGTLVTVSS
VL: DIQLTQSPSFLSASVGDRVTITCRASQGISSYLAWYQQKPGKAPKLLIYAASTLQSGVPSRFSGSGSGTEFTLTISSLQPEDFATYYCQQLNSYPPAFGGGTKVEIK
B2 showed an SARS-CoV-2 pseudovirus neutralisation (luciferase, Huh7), IC50, Fab of 36.2 nM, an SARS-CoV-2 pseudovirus neutralisation (luciferase, Huh7), IC80, Fab of 174 nM and an other of 25.1%.
